Laboratory results taken from publication PMC6880876.

Target: end-binding protein 3 (EB3), full-length, recombinant (UniProt Q9UPY8)
Assay: ELISA

UniProt Q9UPY8, sequence (Q9UPY8 whole entry): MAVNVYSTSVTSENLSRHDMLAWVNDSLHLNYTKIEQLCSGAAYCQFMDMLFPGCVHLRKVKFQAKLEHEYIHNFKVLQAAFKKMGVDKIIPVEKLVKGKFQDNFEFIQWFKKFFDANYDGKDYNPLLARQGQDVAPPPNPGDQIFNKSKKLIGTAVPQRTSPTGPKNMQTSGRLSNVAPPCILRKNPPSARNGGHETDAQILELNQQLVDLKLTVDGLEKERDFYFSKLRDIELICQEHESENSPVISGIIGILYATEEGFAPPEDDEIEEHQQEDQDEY

full-length WT tau (0N4R) (from UniProt P10636-6 1-383) (natural protein)
Kd: 22 nM
